Test results as given in the supplement of paper PMC9732359.
± gives the uncertainty stated by the source.

Test: protein stability index of a GFP-peptide fusion (yeast GPS) (PSI 1-4); higher = more stable; sorted into four equal gates, so the index is relative within each strain
How it was run: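 The protein stability index of a peptide was calculated by multiplying its read frequency in each gate by that gate's number and adding the products. The peptides were tiled 17-residue stretches of yeast proteins, fused downstream of GFP on a Cherry-expressing plasmid and carried in yeast as a pooled library. Mid-log cultures in leucine-free medium were sorted into four equal gates by GFP/Cherry ratio, and each gate's plasmids were PCR-amplified and Illumina-sequenced.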

Row | Sequence | protein stability index (doa10∆) | protein stability index (pdr5∆) | protein stability index (san1∆) | protein stability index (ubr1∆)
1 | EKAKSAGVQGSKVSKQQ [RPL24B] | 3.48 ± 0.14 | 3.4 ± 0.11 | 3.31 ± 0.14 | –
2 | EKIAAGYMQKPVYATIG [PRP28] | 2.87 ± 0.19 | 2.67 ± 0.076 | 2.67 ± 0.15 | 2.67 ± 0.094
3 | EKIKDIHNTKLPAYSGE [POP1] | 3.09 ± 0.059 | 3.04 ± 0.057 | 2.96 ± 0.048 | 2.79 ± 0.08
4 | EKIKKINYHQYISKAQN [SSN2] | 1.82 ± 0.055 | 2.18 ± 0.041 | 2.07 ± 0.078 | 2.15 ± 0.062
5 | EKIMILLVPLALLTKRL [CSN12] | 1.95 ± 0.045 | 1.47 ± 0.04 | 1.33 ± 0.069 | 1.3 ± 0.03
6 | EKKILNQFLKIKKKRKE [SMC1] | 2.98 ± 0.12 | 3.06 ± 0.12 | 2.89 ± 0.1 | 3.33 ± 0.15
7 | EKKNDENSTSNSKPEKS [YLR335W/NUP2] | 3.24 ± 0.086 | 3.21 ± 0.1 | 3.28 ± 0.054 | 3.3 ± 0.056
8 | EKLITSKLLVPQKNVKI [PRE10] | 2.55 ± 0.061 | 2.6 ± 0.047 | 2.04 ± 0.096 | 2.21 ± 0.042
9 | EKLKVNMEKEKDRIIDE [YIL149C/MLP2] | 3.37 ± 0.23 | 3.05 ± 0.2 | 3.39 ± 0.1 | 2.75 ± 0.14
10 | EKPQFKDGETTDANGKT [RPO26] | 3.36 ± 0.076 | 3.3 ± 0.047 | 3.36 ± 0.059 | 3.28 ± 0.05
11 | EKSDALVGVYRQQQENS [SMC1] | 3.25 ± 0.13 | 3.37 ± 0.098 | 3.41 ± 0.12 | 2.85 ± 0.096
12 | ELAAKEEPAKEEAPAPT [FAS2] | 3.08 ± 0.2 | 3.24 ± 0.14 | – | –
13 | ELADLPKLKRIGLVKCT [GRR1] | 2.82 ± 0.085 | 2.71 ± 0.051 | 2.28 ± 0.088 | 2.88 ± 0.087
14 | ELAESTTTKIIDSTDHI [LRP1] | 2.95 ± 0.1 | 3.11 ± 0.1 | 2.86 ± 0.24 | 2.63 ± 0.12
15 | ELAGGNASLTIEDEDEP [SMC1] | 3.03 ± 0.08 | 3.09 ± 0.14 | 3 ± 0.059 | 3.16 ± 0.074
16 | ELAQYMKTNVHTQANEP [RGR1] | 2.81 ± 0.081 | 2.99 ± 0.086 | 2.75 ± 0.064 | 2.75 ± 0.068
17 | ELFKGYLADDIDADSLE [RPL5] | 3.02 ± 0.086 | 3.21 ± 0.076 | 3.23 ± 0.064 | 3.17 ± 0.087
18 | ELGAINLHALSMSLQSK [SWI1] | 2.39 ± 0.058 | 2.33 ± 0.085 | 1.99 ± 0.27 | 2.46 ± 0.076
19 | ELGISLEHPYGKEVEVL [SNU114] | 2.29 ± 0.082 | 2.34 ± 0.086 | 2.17 ± 0.094 | 2.14 ± 0.056
20 | ELGNMTMLITGQRPDRA [SIN4] | 2.54 ± 0.09 | 2.83 ± 0.056 | 2.69 ± 0.09 | 2.31 ± 0.073
21 | ELLDQVTLGREGQIIQR [CDC53] | 3.07 ± 0.14 | 3.73 ± 0.18 | – | 3.21 ± 0.19
22 | ELLEYSDDIAENDNLDN [YCG1] | 3.06 ± 0.058 | 3.27 ± 0.068 | 3.21 ± 0.049 | 3.25 ± 0.054
23 | ELLKLLNDEYNYPQLTE [YCS4] | 3.09 ± 0.096 | 3.11 ± 0.098 | 3.03 ± 0.059 | 3.25 ± 0.06
24 | ELLPHYPFVTNDDIEWM [YJR042W/NUP85] | 2.54 ± 0.13 | 2.93 ± 0.086 | 2.87 ± 0.065 | 2.96 ± 0.073
25 | ELMRIISRNGDTSYKID [SMC1] | 2.83 ± 0.087 | 3.08 ± 0.063 | 2.99 ± 0.072 | 2.95 ± 0.058
26 | ELNEEKKRLMDIDDELN [SMC2] | 3.23 ± 0.095 | 3.42 ± 0.14 | 2.69 ± 0.15 | 3.51 ± 0.069

Row | Sequence | protein stability index (doa10∆) | protein stability index (pdr5∆) | protein stability index (san1∆) | protein stability index (ubr1∆)
27 | ELNVKHVKQCQETCDKL [SMC2] | 3 ± 0.18 | 3.47 ± 0.2 | 3.09 ± 0.082 | 3.31 ± 0.051
28 | ELPLLSPERFATLGIDP [RPT1] | 2.41 ± 0.13 | 2.75 ± 0.18 | 3.27 ± 0.16 | 2.52 ± 0.19
29 | ELPLVITMPATNGKPDM [ARP7] | 2.9 ± 0.088 | 3.04 ± 0.074 | 2.9 ± 0.065 | 2.99 ± 0.059
30 | ELRRFESSINTHPHAAD [SKI6] | 2.73 ± 0.081 | 3.08 ± 0.054 | 2.56 ± 0.064 | 2.87 ± 0.055
31 | ELSDSDRQIINEKMQLL [SIR4] | 2.76 ± 0.049 | 2.8 ± 0.055 | 2.56 ± 0.06 | 2.32 ± 0.047
32 | ELSIRFPQYKLTTFANQ [ARP7] | 1.69 ± 0.062 | 1.51 ± 0.085 | 1.65 ± 0.12 | 1.59 ± 0.051
33 | ELTDKLSALNSEISSLK [SMC1] | 3.15 ± 0.11 | 2.76 ± 0.094 | 3.02 ± 0.074 | 2.89 ± 0.076
34 | ELTKTKSSLYSAQDLLD [YIL149C/MLP2] | 2.67 ± 0.05 | 2.84 ± 0.05 | 2.6 ± 0.07 | 2.83 ± 0.029
35 | ELTQVPSARQKYMVKGG [UBP6] | 2.6 ± 0.13 | 2.83 ± 0.095 | 2.95 ± 0.1 | 2.96 ± 0.11
36 | EMAEKIDFTLLNRLLRL [PRP8] | 2.72 ± 0.058 | 2.93 ± 0.058 | 2.57 ± 0.054 | 2.37 ± 0.049
37 | EMNLHVPQTEEARAEAI [RPO31] | 3.09 ± 0.1 | 3.08 ± 0.085 | 3.05 ± 0.08 | 3.12 ± 0.045
38 | EMVENSSENNQIILAYI [SRP68] | 3.21 ± 0.1 | 3.11 ± 0.088 | 2.77 ± 0.08 | 3.35 ± 0.062
39 | ENEISSLLAMHKHNIMK [CDC53] | 2.92 ± 0.079 | 2.99 ± 0.059 | 3.02 ± 0.052 | 3.07 ± 0.039
40 | ENFSNGISLVMEIVANA [MED1] | 2.12 ± 0.067 | 2.53 ± 0.054 | 2.5 ± 0.057 | 2.51 ± 0.034
41 | ENGDEDEDEDEDEDDDD [QCR6] | 2.01 ± 0.045 | 1.74 ± 0.038 | 1.92 ± 0.05 | 2.46 ± 0.043
42 | ENLMVQRTCLMTVTFLI [YCS4] | 2.09 ± 0.053 | 1.97 ± 0.045 | 2.16 ± 0.07 | 2.04 ± 0.038
43 | ENSIGYNNRKCWPKDSR [PRP8] | 3.08 ± 0.16 | 2.95 ± 0.18 | – | 2.87 ± 0.29
44 | EPEFHALSQSSLLKTKL [RRI1] | 2.15 ± 0.042 | 2.69 ± 0.039 | 2.39 ± 0.042 | 2.24 ± 0.037
45 | EPFNAGIKYHATPPLKR [SMC1] | 3.05 ± 0.071 | 3.12 ± 0.071 | 2.79 ± 0.062 | 2.97 ± 0.045
46 | EPILGQITLTFISELCS [YML103C/NUP188] | 2.6 ± 0.06 | 2.32 ± 0.062 | 3.1 ± 0.055 | 3.02 ± 0.044
47 | EPIYGVQYKLLSISVPS [SNU114] | 2.18 ± 0.12 | 2.76 ± 0.18 | 2.02 ± 0.18 | 3.09 ± 0.11
48 | EPKKDKESIVLPTVGFD [YOR098C/NUP1] | 2.43 ± 0.18 | 3.43 ± 0.19 | 3.11 ± 0.16 | 2.92 ± 0.07
49 | EPKKPSFTFASSKTSQP [YOR098C/NUP1] | 2.93 ± 0.047 | 2.88 ± 0.037 | 2.9 ± 0.045 | 3.04 ± 0.031
50 | EPKQKANAVQNNNGNSA [SRP21] | 3.07 ± 0.083 | 3.24 ± 0.07 | 2.85 ± 0.19 | 3.24 ± 0.12
51 | EPNLAAQQDSTNVRLYS [ECM29] | 2.88 ± 0.11 | 2.9 ± 0.063 | 2.81 ± 0.089 | 2.37 ± 0.074
52 | EPPLSYEQHIENIEPLD [PRP8] | 2.44 ± 0.087 | 2.97 ± 0.097 | 2.32 ± 0.12 | 3.03 ± 0.27
